In PMC8904060 one finds Kd, koff and kon data, which are given here for 6 substances.

Experiment [1] addresses FimH variant 5 (recombinant dscFimH-His6) (E. coli | not stated) (UniProt P08191). Kind of experiment: SPR; BIAcore T200; FimH variant immobilised on CM5 chip (target amount 2,000 RU); GP2 isoforms as analytes at 0.5, 2.0, 6.0, 16 and 29 uM in PBS-P+; 25 C, 30 uL/min; association 3 min, dissociation 10 min; global 1:1 Langmuir fit.
For experiment [2], the target named is FimH variant 9 (recombinant dscFimH-His6) (E. coli | not stated) (UniProt P08191). The experiment is described as above.

With “bovine GP2 isoform 1 (major zymogen granule membrane glycoprotein 2), recombinant secreted form (natural protein)”, in experiment [1], the Kd is 179 nM, the koff worked out at 9.65e-05 s⁻¹ and the kon was found to be 538 M⁻¹ s⁻¹. Moreover, in experiment [2], the Kd worked out at 340 nM, the koff amounted to 0.000187 s⁻¹ and the kon amounted to 551 M⁻¹ s⁻¹.
Consider “bovine GP2 isoform 2 (major zymogen granule membrane glycoprotein 2), recombinant secreted form (natural protein)”, for which, in experiment [1], the Kd is 136 nM, the koff amounted to 7.41e-05 s⁻¹ and the association rate constant (kon) is 545 M⁻¹ s⁻¹. Moreover, in experiment [2], the dissociation constant (Kd) was determined as 93.4 nM, the koff was found to be 5.72e-05 s⁻¹ and the kon was 612 M⁻¹ s⁻¹.
For the substance “human GP2 isoform 2, recombinant (natural protein)”, in experiment [1], the Kd was determined as 97.8 nM, the koff was 0.000102 s⁻¹ and the kon came to 1040 M⁻¹ s⁻¹. Moreover, in experiment [2], the dissociation constant (Kd) worked out at 22.5 nM, the koff is 2.38e-05 s⁻¹ and the on-rate (kon) is 1060 M⁻¹ s⁻¹.
Regarding “human GP2 isoform 4, recombinant (natural protein)”, in experiment [1], the Kd came to 21.7 nM, the koff worked out at 1.68e-05 s⁻¹ and the on-rate constant (kon) is 772 M⁻¹ s⁻¹. Further, in experiment [2], the Kd turned out to be 0.927 nM, the koff turned out to be 4.31e-07 s⁻¹ and the kon is 465 M⁻¹ s⁻¹.
Turning to “porcine GP2 isoform 1, recombinant (natural protein)”, in experiment [1], the equilibrium dissociation constant (Kd) amounted to 22.6 nM, the koff is 1.71e-05 s⁻¹ and the kon came to 758 M⁻¹ s⁻¹. For the same substance, in experiment [2], the Kd turned out to be 158 nM, the koff is 8.44e-05 s⁻¹ and the kon worked out at 535 M⁻¹ s⁻¹.
As for “porcine GP2 isoform 2, recombinant (natural protein)”, in experiment [1], the Kd was 95.7 nM, the koff stood at 8.32e-05 s⁻¹ and the association rate constant (kon) came to 870 M⁻¹ s⁻¹. In addition, in experiment [2], the Kd stood at 98.5 nM, the koff amounted to 8.84e-05 s⁻¹ and the kon amounted to 898 M⁻¹ s⁻¹.

One may read the Kd as the equilibrium constant for the complex coming apart. Usually koff stands for a measure of how fast the partners let go of each other. In general, kon refers to the rate constant with which the complex forms.
